Results taken from patent US20220332804A1 (CSL INNOVATION, published 2022).

Assays:
Assay in all cases: SPR, KD relative to WT C2;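 further: biacore SPR at 37 °C, anti-C2 mAbs captured on anti-human IgG chips with alanine or serine point mutants of C2 as analyte, KD from 1:1 fit compared with wild-type C2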
human C2 S473A = biological target: T1, human C2 S473A (human, UniProt P06681 21-752)
T1 sequence: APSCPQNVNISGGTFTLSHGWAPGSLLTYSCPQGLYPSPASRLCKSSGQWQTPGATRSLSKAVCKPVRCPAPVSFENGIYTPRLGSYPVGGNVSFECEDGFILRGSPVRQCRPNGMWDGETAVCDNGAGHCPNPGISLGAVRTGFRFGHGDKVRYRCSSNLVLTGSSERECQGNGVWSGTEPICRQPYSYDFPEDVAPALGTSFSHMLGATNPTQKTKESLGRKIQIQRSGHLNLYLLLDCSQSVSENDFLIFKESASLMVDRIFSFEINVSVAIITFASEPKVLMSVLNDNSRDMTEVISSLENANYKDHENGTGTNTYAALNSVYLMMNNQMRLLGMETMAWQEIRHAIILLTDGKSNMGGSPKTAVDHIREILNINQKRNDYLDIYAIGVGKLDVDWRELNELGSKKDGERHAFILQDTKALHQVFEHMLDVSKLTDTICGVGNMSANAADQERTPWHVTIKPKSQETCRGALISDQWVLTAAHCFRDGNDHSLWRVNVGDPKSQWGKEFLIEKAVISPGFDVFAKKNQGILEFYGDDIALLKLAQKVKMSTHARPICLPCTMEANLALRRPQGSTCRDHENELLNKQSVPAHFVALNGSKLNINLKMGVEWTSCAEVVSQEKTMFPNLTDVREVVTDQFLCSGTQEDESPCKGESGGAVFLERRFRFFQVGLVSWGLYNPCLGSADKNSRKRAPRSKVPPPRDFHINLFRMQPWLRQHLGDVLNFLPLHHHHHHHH

human C2 A436S = biological target: T2, human C2 A436S (human, UniProt P06681 21-752)
T2 sequence: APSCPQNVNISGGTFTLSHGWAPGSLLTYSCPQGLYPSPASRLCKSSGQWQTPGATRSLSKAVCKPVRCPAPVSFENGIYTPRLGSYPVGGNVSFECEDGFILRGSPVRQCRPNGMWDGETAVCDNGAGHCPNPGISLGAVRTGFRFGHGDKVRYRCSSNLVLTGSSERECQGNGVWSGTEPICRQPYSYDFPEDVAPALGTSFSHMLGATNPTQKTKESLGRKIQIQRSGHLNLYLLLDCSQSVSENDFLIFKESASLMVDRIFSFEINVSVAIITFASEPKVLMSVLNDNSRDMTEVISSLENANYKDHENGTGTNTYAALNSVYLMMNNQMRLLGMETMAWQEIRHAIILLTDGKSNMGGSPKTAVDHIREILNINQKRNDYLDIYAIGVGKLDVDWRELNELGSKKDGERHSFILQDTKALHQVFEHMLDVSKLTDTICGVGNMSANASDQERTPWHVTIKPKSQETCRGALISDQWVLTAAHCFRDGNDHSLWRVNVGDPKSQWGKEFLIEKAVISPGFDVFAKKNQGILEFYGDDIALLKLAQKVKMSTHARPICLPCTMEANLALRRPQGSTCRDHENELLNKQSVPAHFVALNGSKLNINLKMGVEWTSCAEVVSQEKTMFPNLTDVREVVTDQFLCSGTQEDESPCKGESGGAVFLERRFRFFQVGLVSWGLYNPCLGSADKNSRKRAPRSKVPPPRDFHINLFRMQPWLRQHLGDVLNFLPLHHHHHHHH

human C2 D454A = biological target: T3, human C2 D454A (human, UniProt P06681 21-752)
T3 sequence: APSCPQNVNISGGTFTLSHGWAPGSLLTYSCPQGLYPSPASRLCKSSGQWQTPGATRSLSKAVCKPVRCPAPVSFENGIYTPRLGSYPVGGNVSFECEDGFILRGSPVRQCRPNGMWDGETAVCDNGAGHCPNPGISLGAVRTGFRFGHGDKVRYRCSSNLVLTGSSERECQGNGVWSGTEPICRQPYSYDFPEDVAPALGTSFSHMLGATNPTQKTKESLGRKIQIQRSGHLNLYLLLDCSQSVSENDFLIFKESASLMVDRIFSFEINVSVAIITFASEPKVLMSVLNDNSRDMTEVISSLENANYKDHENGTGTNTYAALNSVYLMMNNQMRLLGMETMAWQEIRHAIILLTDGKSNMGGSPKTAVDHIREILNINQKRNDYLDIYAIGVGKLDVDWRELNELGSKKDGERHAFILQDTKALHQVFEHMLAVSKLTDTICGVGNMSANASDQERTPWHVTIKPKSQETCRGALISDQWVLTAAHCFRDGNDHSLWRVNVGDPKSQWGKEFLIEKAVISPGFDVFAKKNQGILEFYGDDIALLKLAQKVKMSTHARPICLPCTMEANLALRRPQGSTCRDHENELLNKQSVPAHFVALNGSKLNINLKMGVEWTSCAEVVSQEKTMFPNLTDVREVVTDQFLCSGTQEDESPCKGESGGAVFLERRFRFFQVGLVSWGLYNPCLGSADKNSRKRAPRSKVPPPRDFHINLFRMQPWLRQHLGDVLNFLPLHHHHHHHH

human C2 S456A = biological target: T4, human C2 S456A (human, UniProt P06681 21-752)
T4 sequence: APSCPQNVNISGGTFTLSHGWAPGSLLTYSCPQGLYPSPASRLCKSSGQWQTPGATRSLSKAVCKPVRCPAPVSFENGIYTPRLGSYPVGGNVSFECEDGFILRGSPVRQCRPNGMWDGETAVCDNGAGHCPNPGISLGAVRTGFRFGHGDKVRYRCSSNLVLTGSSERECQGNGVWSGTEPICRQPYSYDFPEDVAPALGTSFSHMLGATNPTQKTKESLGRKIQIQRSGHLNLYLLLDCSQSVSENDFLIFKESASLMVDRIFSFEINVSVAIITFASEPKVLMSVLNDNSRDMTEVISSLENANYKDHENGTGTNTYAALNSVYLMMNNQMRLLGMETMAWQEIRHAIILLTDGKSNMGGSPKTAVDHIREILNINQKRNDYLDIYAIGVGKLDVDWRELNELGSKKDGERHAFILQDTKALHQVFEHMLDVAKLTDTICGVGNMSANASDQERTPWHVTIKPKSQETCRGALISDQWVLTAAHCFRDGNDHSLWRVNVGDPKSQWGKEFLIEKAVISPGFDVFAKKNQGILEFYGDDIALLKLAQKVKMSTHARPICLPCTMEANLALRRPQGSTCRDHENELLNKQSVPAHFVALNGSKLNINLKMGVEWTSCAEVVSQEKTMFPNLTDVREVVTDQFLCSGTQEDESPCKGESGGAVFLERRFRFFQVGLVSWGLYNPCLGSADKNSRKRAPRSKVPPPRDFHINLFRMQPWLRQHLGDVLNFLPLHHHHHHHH

B1: RF16-242 (antibody, human IgG4 S228P, lambda, V domains shown)
VH: EVQLLQSGAEVKKPGESLKISCKGSGYSFTSYWIGWVRQMPGKGLEWMGIIYPGDSDTRYSPSFQGQVTISADKSISTAYLQWSSLKASDTAMYYCARRGHYGDYFDYWGQGTLVTVSS
VL: SYELTQPPSVSVSPGQTARITCSGDALPKKYAYWYHQKSGQAPVLVIYEDRRRPSEIPERFSGSSSGTMATLTITGAQVEDEGVYFCYSRDRAGNQRVFGGGTQLTVLG
notes: pH-dependent anti-C2 antibody from a phage display library
Which results are given for B1?
Fold diff (human C2 S473A): 2 fold; Fold diff (human C2 A436S): 1 fold; Fold diff (human C2 D454A): 5 fold; Fold diff (human C2 S456A): 9 fold
